Results: PMC3025356, “Mechanism of the Ca^2+-Dependent Interaction between S100A4 and Tail Fragments of Nonmuscle Myosin Heavy Chain IIA” (Journal of Molecular Biology, 2011)

Tests used:
S100A4 [1] = biological target: T1, S100A4 (Homo sapiens, UniProt P26447); assay: Summary of rate and equilibrium constants defined according to Scheme 1; format: binding
T1 construct: We used full-length S100A4 for this analysis; made in house; host or cells: Escherichia coli BL21(DE3)
Excerpt: The interaction of myosin tail fragments (M) with S100A4 depends on [Ca^2+], with little detectable binding in the absence of Ca^2+.[2,7,17] Scheme 1 presents a minimal pathway describing the thermodynamics and kinetics of this interaction, where arrow lengths indicate the approximate position of the equilibria involved.
[formula] Scheme 1 Ca2+ and myosin peptide (M) binding to S100A4.
The binding of Ca^2+ and a target peptide to S100A4, as shown in Scheme 1, is thermodynamically coupled so that K1K2 = K0K3. For simplicity, we assume a 1:1 stoichiometry and independent binding sites, which are unlikely to be true at least for the longer fragments. However, the trends in binding remain valid for more complex cases. Binding of target peptides to S100A4 in the absence of Ca^2+ is weak (K0 > 100 μM), while binding of target peptides to S100A4 in the presence of Ca^2+ (K2) is around a micromolar or less for longer fragments. Knowing that Ca^2+ binding to S100A4 has K1 = 2–5 μM (from the ITC data above and the literature[14,17,18]) requires that Ca^2+ binding to the M–S100A4 complex be very tight (K3 < 0.15 μM and even lower for M200). The latter cannot be easily determined directly as it requires protein concentrations greater than K0 (i.e., >>100 μM) so that the proteins remain bound together throughout the titration with Ca^2+. However, K3 is readily determined by calculation because values or limits for K0, K1, and K2 are available (Table 2). This aspect is addressed further below for M200, which has the complication of forming filaments at the ionic strength used.

S100A4 [2] = biological target: T1, S100A4; assay: Competition of M32/M16^N with M200 for S100A4 (turbidity); format: biochemical; conditions: turbidity competition
Experimental: Fig. 9 Dissociation of M200 filaments by S100A4. (a) Initially, M200 was added (i) from a concentrated stock in 0.5 M NaCl to give a final concentration of 5 μM M200 (with respect to the polypeptide chain) in 100 mM NaCl, 10 mM Hepes, and 0.1 mM Ca^2+ at pH 7.5 and 20 °C. A biphasic rise in turbidity was recorded for 200 s (continuous line). Then 10 μM S100A4 (with respect to monomer concentration) was added (ii), followed by 0.2 mM EGTA (iii) and 1 mM Ca^2+ (iv). […] (b) M200 was diluted (i) into 100 mM NaCl to form filaments as in (a), then 5 μM S100A4 was added (ii), causing a 54% drop in turbidity. A further 5 μM S100A4 (iii) caused turbidity to fall to almost zero. (c) Stopped-flow records monitoring the dissociation of 5 μM M200 filaments on jumping [NaCl] from 100 mM to 120 mM NaCl. Other components of the buffer were 20 mM Hepes, 1 mM Mg^2+, and 100 μM Ca^2+ at pH 7.5 and 20 °C. […] In the presence of 20 μM S100A4 (lower trace), the turbidity decreased by 87% with a rate constant of 0.2 s^− 1.
Further information on Scheme 2 was obtained from competition assays. […] An independent estimate of K5 based on the Ca^2+ dependence of the turbidity assay yielded a value of 0.003 μM (see Supplementary Data).
The decrease in fluorescence, […]
that F-M16N binding was slightly faster. […]
A second estimate was calculated from the apparent Ca2+ binding constant observed in the turbidity assay […]

T1 sequence (P26447 whole entry): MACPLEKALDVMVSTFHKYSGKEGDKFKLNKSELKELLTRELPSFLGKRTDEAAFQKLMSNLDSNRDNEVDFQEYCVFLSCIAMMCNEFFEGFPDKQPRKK

B1: M200: His-tagged human NM-MHC IIA residues Q1761-E1960, V1913I substitution (protein, UniProt P35579 1761-1960, looked up, variant V1913I)
chain: QINTDLNLERSHAQKNENARQQLERQNKELKVKLQEMEGTVKSKYKASITALEAKIAQLEEQLDNETKERQAACKQVRRTEKKLKDVLLQVDDERRNAEQYKDQADKASTRLKQLKRQLEEAEEEAQRANASRRKLQRELEDATETADAMNREISSLKNKLRRGDLPFVVPRRMARKGAGDGSDEEVDGKADGAEAKPAE
modifications: His tag
notes: His-tagged human NM-MHC IIA residues Q1761-E1960, V1913I substitution
In the case of B1, the k3 (S100A4 [1]; Ca^2+ association to peptide–S100A4) is reported as greater than 2000 μM^− 1 s^− 1, the Kd (S100A4 [1]; Ca^2+ binding to peptide–S100A4, limit from K3 = K1K2/K0, read-out: K3) is reported as less than 0.15 nM and the “k− 3” value (S100A4 [1]; Ca^2+ dissociation from peptide–S100A4–Ca^2+) is reported as 0.3 s^− 1. The “k− 2” value (S100A4 [1]; peptide dissociation from S100A4–Ca^2+) was less than 0.3 s^− 1 and the “binding relative to M32” value (S100A4 [2]) was 3 orders of magnitude tighter than M32.
